In patent publication US20150125444A1 (AstraZeneca / MedImmune, published 2015):
Substitutions are numbered along the chain they refer to.

T1: Human FcγRIIb extracellular domain (human, UniProt P31994 43-217)
T1 construct: extracellular domain
T1 sequence (looked up): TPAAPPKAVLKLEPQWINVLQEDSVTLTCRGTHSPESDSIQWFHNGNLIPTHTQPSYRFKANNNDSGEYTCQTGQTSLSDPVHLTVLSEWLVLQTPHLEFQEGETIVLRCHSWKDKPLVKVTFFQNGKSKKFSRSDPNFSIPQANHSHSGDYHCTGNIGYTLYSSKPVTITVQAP

T2: Human FcγRIIa extracellular domain (human, UniProt P12318 34-217)
T2 construct: extracellular domain
T2 sequence (looked up): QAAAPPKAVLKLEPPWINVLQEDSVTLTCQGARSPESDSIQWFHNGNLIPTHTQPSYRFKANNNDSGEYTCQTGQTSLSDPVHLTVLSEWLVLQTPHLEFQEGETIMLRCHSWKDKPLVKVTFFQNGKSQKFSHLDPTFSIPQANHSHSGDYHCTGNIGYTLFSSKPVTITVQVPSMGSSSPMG

B1: Ab4 (anti-C5a antibody 1B8) with FAQ-YTE variant IgG1 Fc domain (antibody)
heavy: EVQLLESGGGLVQPGGSLRLSCAASGFTFSSYVMNWVRQAPGKGLEWVSSISPSGGRTWYADSVKGRFTISRDNSKNTLYLQMNSLRAEDTAVYYCARSDGSAAGFLGYWGQGTLVTVSSASTKGPSVFPLAPSSKSTSGGTAALGCLVKDYFPEPVTVSWNSGALTSGVHTFPAVLQSSGLYSLSSVVTVPSSSLGTQTYICNVNHKPSNTKVDKRVEPKSCDKTHTCPPCPAPEFAGGPSVFLFPPKPKDTLYITREPEVTCVVVDVSHEDPEVKFNWYVDGVEVHNAKTKPREEQYNSTYRVVSVLTVLHQDWLNGKEYKCQVSNKALPAPIEKTISKAKGQPREPQVYTLPPSREEMTKNQVSLTCLVKGFYPSDIAVEWESNGQPENNYKTTPPVLDSDGSFFLYSKLTVDKSRWQQGNVFSCSVMHEALHNHYTQKSLSLSPGK
light: QSALTQPPSASGTPGQRVTISCSGTNSNIGSNYVFWYQQLPGTAPKLLIFESNRRPSGVPDRFSGSKSDTSASLAISGLRSEDEADYYCATWDDTLIAPVFGSGTKVTVLGQPKANPTVTLFPPSSEELQANKATLVCLISDFYPGAVTVAWKADSSPVKAGVETTTPSKQSNNKYAASSYLSLTPEQWKSHRSYSCQVTHEGSTVEKTVAPAEC
notes: Full IgG1; also called Ab4 FAQ-YTE
B2: Ab4 (anti-C5a antibody 1B8) with FE-YTE variant IgG1 Fc domain (antibody)
heavy: B1 heavy with A238E, Q325K
light: B1 light
notes: Full IgG1; also called Ab4 FE-YTE
B3: Ab4 (anti-C5a antibody 1B8) with FES-YTE variant IgG1 Fc domain (antibody)
heavy: B1 heavy with A238E, Q325K, P334S
light: B1 light
notes: Full IgG1; also called Ab4 FES-YTE
B4: Ab3 (anti-CD20 antibody HB20.3) with wild-type IgG1 Fc domain (antibody)
heavy: not shown
light: DIQMTQSPASLSASVGETVTITCRASGNIHNYLAWYQQKQGKSPQLLVYNAKTLADGVPSRFSGSGSGTQFSLKINSLQPEDFGSYYCQHFWSTPWTFGGGTKLEIKRTVAAPSVFIFPPSDEQLKSGTASVVCLLNNFYPREAKVQWKVDNALQSGNSQESVTEQDSKDSTYSLSSTLTLSKADYEKHKVYACEVTHQGLSSPVTKSFNRGEC
notes: Full human IgG1 kappa antibody; also called Ab3 WT; WT
B5: Ab3 (anti-CD20 antibody HB20.3) with FQG-YTE variant IgG1 Fc domain (antibody)
heavy: QVQLQQPGAELVKPGASVKMSCKASGFTFTNYNMHWLKQTPGQGLEWIGAIYPENGDTSYNQKFKGKATLTADKASSTAYMHLSSLTSEDSAVYFCARFYYYGSYYGAMDYWGQGTSVTVSSASTKGPSVFPLAPSSKSTSGGTAALGCLVKDYFPEPVTVSWNSGALTSGVHTFPAVLQSSGLYSLSSVVTVPSSSLGTQTYICNVNHKPSNTKVDKRVEPKSCDKTHTCPPCPAPEFQGGPSVFLFPPKPKDTLYITREPEVTCVVVDVSHEDPEVKFNWYVDGVEVHNAKTKPREEQYNSTYRVVSVLTVLHQDWLNGKEYKCKVSNKALPAGIEKTISKAKGQPREPQVYTLPPSREEMTKNQVSLTCLVKGFYPSDIAVEWESNGQPENNYKTTPPVLDSDGSFFLYSKLTVDKSRWQQGNVFSCSVMHEALHNHYTQKSLSLSPGK
light: B4 light
notes: Full IgG1; also called Ab3 FQG-YTE; YTE-FQG
B6: Ab3 (anti-CD20 antibody HB20.3) with FQQ-YTE variant IgG1 Fc domain (antibody)
heavy: B5 heavy with K327Q, G336P
light: B4 light
notes: Full IgG1; also called Ab3 FQQ-YTE; YTE-FQQ
B7: Ab3 (anti-CD20 antibody HB20.3) with FAQ-YTE variant IgG1 Fc domain (antibody)
heavy: B5 heavy with Q240A, K327Q, G336P
light: B4 light
notes: Full IgG1; also called Ab3 FAQ-YTE; YTE-FAQ
B8: Ab3 (anti-CD20 antibody HB20.3) with FE-YTE variant IgG1 Fc domain (antibody)
heavy: B5 heavy with Q240E, G336P
light: B4 light
notes: Full IgG1; also called Ab3 FE-YTE; YTE-FE
B9: Ab3 (anti-CD20 antibody HB20.3) with YTE variant IgG1 Fc domain (antibody)
heavy: B5 heavy with F239L, Q240L, G336P
light: B4 light
notes: Full IgG1; also called Ab3 YTE

Key:
[1] = target: T3, Human FcγRIIIa (158F) extracellular domain (human, UniProt P08637 17-208); assay: SPR (ProteOn XPR36), antibody immobilised, steady state, pH 7.4
T3 construct: extracellular domain; also called FcγRIII(158F)
T3 sequence (P08637 17-208): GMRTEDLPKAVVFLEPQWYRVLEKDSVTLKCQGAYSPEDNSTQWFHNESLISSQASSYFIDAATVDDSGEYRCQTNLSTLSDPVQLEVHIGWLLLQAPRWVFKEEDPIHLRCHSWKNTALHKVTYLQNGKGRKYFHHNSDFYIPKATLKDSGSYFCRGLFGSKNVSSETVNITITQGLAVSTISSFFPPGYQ
Protocol: (§1) Experiments were performed using the ProteOn XPR36 surface plasmon resonance system (Bio Rad). Phosphate buffered saline with 0.005% Tween 20 (PBS/Tween), pH 7.4 was used as running buffer for most experiments with the exception of Human FcRn (extracellular domain) binding in which Phosphate buffered saline with 0.005% Tween 20 (PBS/Tween), pH 6.0 was used. All experiments were performed at 25° C. Antibodies were immobilized on a ProteOn™ GLC Sensor Chip (#176-5011) using EDAC (1-Ethyl-3-[3-dimethylaminopropyl]carbodiimide) and sulfo-NHS (N-hydroxysulfosuccinimide) to an R.U. (response unit) level of 4000-6000. C1q, FcγRI, FcγRIIa, FcγRIIb, FcγRIII(158V), FcγRIII(158F), and FcRn were then flowed over the IgG immobilized surface at various concentrations at a rate of 25 μl/minute for a long enough period of time to achieve steady state, or near steady state. Binding (if any could be determined) was quantified via steady state equilibrium binding analysis using the ProteOn software. Human FcγRI, FcγRIIa, FcγRIIb, FcγRIII(158V), FcγRIII(158F), and FcRn extracellular domains were generated via mammalian expression vectors in house. Human C1q was obtained from Quidel (CA).

[2] = target: T1, Human FcγRIIb extracellular domain; assay: as above
Protocol: as §1

Human C1q = target: T4, Human C1q (human, UniProt P02745 23-245; P02746 28-253; P02747 29-245); assay: as above
T4 construct: Bought complement protein; In the CDC assay C1q came with human serum
T4 sequence (P02745 23-245 limits assumed, chain 1 of 3): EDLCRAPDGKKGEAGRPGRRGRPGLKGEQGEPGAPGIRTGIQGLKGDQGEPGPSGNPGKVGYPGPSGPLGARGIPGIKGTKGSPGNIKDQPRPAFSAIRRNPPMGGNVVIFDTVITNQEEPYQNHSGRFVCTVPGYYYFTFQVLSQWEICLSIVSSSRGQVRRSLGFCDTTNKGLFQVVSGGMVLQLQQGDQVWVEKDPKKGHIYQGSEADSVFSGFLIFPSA
T4 sequence (P02746 28-253 limits assumed, chain 2 of 3): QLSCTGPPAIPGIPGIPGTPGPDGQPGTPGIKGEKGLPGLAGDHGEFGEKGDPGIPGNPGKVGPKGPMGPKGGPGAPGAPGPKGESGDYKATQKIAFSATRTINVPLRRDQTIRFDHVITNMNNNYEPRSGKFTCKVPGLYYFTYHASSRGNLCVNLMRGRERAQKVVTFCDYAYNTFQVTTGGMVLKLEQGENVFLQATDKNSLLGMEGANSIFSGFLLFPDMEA
T4 sequence (P02747 29-245 limits assumed, chain 3 of 3): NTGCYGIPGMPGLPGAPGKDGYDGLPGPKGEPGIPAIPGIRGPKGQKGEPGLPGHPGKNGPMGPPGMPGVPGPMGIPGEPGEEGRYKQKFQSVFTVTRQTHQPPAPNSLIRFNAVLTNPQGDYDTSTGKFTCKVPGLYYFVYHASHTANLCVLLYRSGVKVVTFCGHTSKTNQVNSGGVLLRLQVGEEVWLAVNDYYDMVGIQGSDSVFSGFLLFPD
Protocol: as §1

[3] = target: T5, Human FcγRIIIa (158V) extracellular domain (human, UniProt P08637 17-208); assay: as above
T5 construct: extracellular domain; Position 158 is the usual allotype numbering (mature protein), not the precursor numbering of the database entry; also called FcγRIII(158V)
T5 sequence (P08637 17-208 F176V): as the sequence (P08637 17-208) above, with F160V counted along it
Protocol: as §1

[4] = target: T2, Human FcγRIIa extracellular domain; assay: as above
Protocol: as §1

[5] = target: T6, Human FcγRIa extracellular domain (human, UniProt P12314 16-292); assay: as above
T6 construct: extracellular domain
T6 sequence (P12314 16-292): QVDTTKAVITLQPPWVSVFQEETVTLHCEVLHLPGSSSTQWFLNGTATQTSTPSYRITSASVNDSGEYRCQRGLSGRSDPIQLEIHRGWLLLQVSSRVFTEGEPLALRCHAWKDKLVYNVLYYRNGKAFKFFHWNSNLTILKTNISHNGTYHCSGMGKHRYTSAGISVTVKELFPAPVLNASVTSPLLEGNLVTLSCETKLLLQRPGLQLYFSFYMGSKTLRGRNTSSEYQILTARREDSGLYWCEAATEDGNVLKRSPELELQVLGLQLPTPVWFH
Protocol: as §1

[6] = target: Human FcRn (extracellular domain) (human, UniProt P55899 24-297); assay: SPR (ProteOn XPR36), antibody immobilised, steady state, pH 6.0
Sequence of Human FcRn (extracellular domain) (P55899 24-297): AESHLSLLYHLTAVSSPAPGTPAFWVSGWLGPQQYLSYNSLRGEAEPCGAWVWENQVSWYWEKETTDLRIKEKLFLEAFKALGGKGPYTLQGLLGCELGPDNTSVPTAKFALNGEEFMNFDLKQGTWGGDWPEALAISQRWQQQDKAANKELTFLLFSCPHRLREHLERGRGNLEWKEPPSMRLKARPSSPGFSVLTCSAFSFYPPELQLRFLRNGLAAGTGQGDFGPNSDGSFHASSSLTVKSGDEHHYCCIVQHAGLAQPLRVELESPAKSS
Protocol: as §1

| Binder | binding result [1] | binding result [2] | binding result (Human C1q) | binding result [3] | binding result [4] | binding result [5] | Kd [6] [nM] | Kd [1] [nM] | Kd [2] [nM] | Kd (Human C1q) [nM] | Kd [3] [nM] | Kd [4] [nM] | Kd [5] [nM] |
| --- | --- | --- | --- | --- | --- | --- | --- | --- | --- | --- | --- | --- | --- |
| B1 | no binding | no binding | no binding | no binding | no binding | no binding |  |  |  |  |  |  |  |
| B2 |  |  | binds |  |  |  |  |  |  |  |  |  |  |
| B3 |  |  |  |  |  |  | 270 |  |  |  |  |  |  |
| B4 |  |  |  |  |  |  | 670 | 4700 | 6000 | 103 | 900 | 1200 | 78 |
| B5 | no binding | no binding | no binding | no binding | no binding | no binding |  |  |  |  |  |  |  |
| B6 | no binding | no binding | no binding | no binding | no binding | no binding |  |  |  |  |  |  |  |
| B7 | no binding | no binding | no binding | no binding | no binding | no binding |  |  |  |  |  |  |  |
| B8 |  |  |  |  |  |  |  |  |  | 360 |  |  |  |
| B9 |  |  |  |  |  |  | 235 | 6100 | 1600 | 70 | 800 | 2800 | 140 |
